Reference: the supplement of paper PMC10567573

B1: NCF4 (parent)
chain: FGPDSKSSALACTLPTLPAKVYVG

Variants of: B1
Test: protein stability index of a GFP-peptide fusion (GPS, HEK-293T) (PSI 1-6); higher = more stable
Conditions: c terminus: a fixed tail appended
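Also: lentivirally expressed fusions sorted by FACS into six bins by GFP to DsRed ratio, PSI derived from sequencing read proportions per bin multiplied by bin number.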

Point of comparison: FGPDSKSSALACTLPTLPACVYVG, protein stability index 2.48. Against it:
- FGPDSKSSALACTLPTLPANVYVG — higher, 2.49
- FGPDSKSSALACTLPTLPAWVYVG — lower, 2.15
- FGPDSKSSALACTLPTLPATVYVG — lower, 1.98
- FGPDSKSSALACTLPTLPARVYVG — lower, 2
- FGPDSKSSALACTLPTLPAEVYVG — lower, 2.13
- FGPDSKSSALACTLPTLPAMVYVG — lower, 1.64
- FGPDSKSSALACTLPTLPADVYVG — higher, 2.64
- FGPDSKSSALACTLPTLPAQVYVG — lower, 2.08
- FGPDSKSSALACTLPTLPAYVYVG — higher, 2.58
- FGPDSKSSALACTLPTLPAGVYVG — lower, 2.38
- FGPDSKSSALACTLPTLPAHVYVG — lower, 2.19
- FGPDSKSSALACTLPTLPAIVYVG — higher, 2.76
- FGPDSKSSALACTLPTLPAPVYVG — lower, 2.35
- FGPDSKSSALACTLPTLPAVVYVG — lower, 1.81
- FGPDSKSSALACTLPTLPAAVYVG — lower, 2.01
- FGPDSKSSALACTLPTLPASVYVG — lower, 2.31
- FGPDSKSSALACTLPTLPAFVYVG — the same, 2.48
- FGPDSKSSALACTLPTLPAKFYVG — lower, 2
- FGPDSKSSALACTLPTLPAKIYVG — lower, 1.91
- FGPDSKSSALACTLPTLPAKHYVG — lower, 2.44
- FGPDSKSSALACTLPTLPAKEYVG — higher, 3.17
- FGPDSKSSALACTLPTLPAKDYVG — higher, 3.28
- FGPDSKSSALACTLPTLPAKKYVG — higher, 3.09
- FGPDSKSSALACTLPTLPAKAYVG — higher, 2.71
- FGPDSKSSALACTLPTLPAKGYVG — higher, 2.56
- FGPDSKSSALACTLPTLPAKCYVG — higher, 2.58
- FGPDSKSSALACTLPNLPAKVYVG — lower, 2.06
- FGPDSKSSALACTLPSLPAKVYVG — lower, 2.41
- FGPDSKSSALACTLPMLPAKVYVG — lower, 1.76
- FGPDSKSSALACTLPWLPAKVYVG — higher, 3.26
- FGPDSKSSALACTLPLLPAKVYVG — lower, 1.73
- FGPDSKSSALACTLPRLPAKVYVG — lower, 1.97
- FGPDSKSSALACTLPYLPAKVYVG — lower, 2.45
- FGPDSKSSALACTLPQLPAKVYVG — lower, 2.2
- FGPDSKSSALACTLPVLPAKVYVG — lower, 2.08
- FGPDSKSSALACTLPPLPAKVYVG — lower, 2.05
- FGPDSKSSALACTLPTAPAKVYVG — lower, 2.39
- FGPDSKSSALACTLPTGPAKVYVG — higher, 2.59
- FGPDSKSSALACTLPTVPAKVYVG — lower, 2.29
- FGPDSKSSALACTLPTFPAKVYVG — lower, 2
- FGPDSKSSALACTLPTEPAKVYVG — higher, 2.64
- FGPDSKSSALACTLPTNPAKVYVG — lower, 2.27
- FGPDSKSSALACTLPTCPAKVYVG — lower, 2.14
- FGPDSKSSALACTLPTPPAKVYVG — higher, 2.6
- FGPDSKSSALACTLPTTPAKVYVG — lower, 2.43
- FGPDSKSSALACTLPTDPAKVYVG — higher, 2.76
- FGPDSKSSALACTLPTQPAKVYVG — higher, 3.03
- FGPDSKSSALACTLPTWPAKVYVG — lower, 1.88
- FGPDSKSSALACTLPTSPAKVYVG — lower, 2.16
- FGPDSKSSALACTLPTKPAKVYVG — higher, 2.54
- FGPDSKSSALACTLPTMPAKVYVG — lower, 2.24
- FGPDSKSSALACTLPTHPAKVYVG — lower, 2.09
- FGPDSKSSALACTLPTYPAKVYVG — lower, 1.54
- FGPDSKSSALACTLPTIPAKVYVG — lower, 1.88
- FGPDSKSSALACTLPTRPAKVYVG — lower, 2.2
- FGPDSKSSALACTLPTLWAKVYVG — higher, 2.77
- FGPDSKSSALACTLPTLCAKVYVG — lower, 1.52
- FGPDSKSSALACTLPTLDAKVYVG — higher, 2.71
- FGPDSKSSALACTLPTLKAKVYVG — lower, 2.15
- FGPDSKSSALACTLPTLGAKVYVG — lower, 2.12
- FGPDSKSSALACTLPTLTAKVYVG — lower, 2.03
- FGPDSKSSALACTLPTLMAKVYVG — lower, 1.75
- FGPDSKSSALACTLPTLIAKVYVG — higher, 3.81
- FGPDSKSSALACTLPTLYAKVYVG — lower, 2.42
- FGPDSKSSALACTLPTLRAKVYVG — lower, 1.61
- FGPDSKSSALACTLPTLSAKVYVG — lower, 1.65
- FGPDSKSSALACTLPTLFAKVYVG — lower, 2.02
- FGPDSKSSALACTLPTLEAKVYVG — lower, 2.23
- FGPDSKSSALACTLPTLAAKVYVG — higher, 2.98
- FGPDSKSSALACTLPTLQAKVYVG — lower, 2.02
- FGPDSKSSALACTLPTLVAKVYVG — lower, 1.55
- FGPDSKSSALACTLPTLHAKVYVG — lower, 2.26
- FGPDSKSSALACTLPTLLAKVYVG — lower, 1.65
- FGPDSKSSALACTLPTLNAKVYVG — lower, 2.24
- FGPDSKSSALACTLPTLPSKVYVG — lower, 2.14
- FGPDSKSSALACTLPTLPHKVYVG — lower, 2.17
- FGPDSKSSALACTLPTLPYKVYVG — lower, 1.95
- FGPDSKSSALACTLPTLPQKVYVG — lower, 1.91
- FGPDSKSSALACTLPTLPTKVYVG — lower, 2.05
- FGPDSKSSALACTLPTLPCKVYVG — lower, 1.74
- FGPDSKSSALACTLPTLPNKVYVG — lower, 2.31
- FGPDSKSSALACTLPTLPIKVYVG — lower, 1.87
- FGPDSKSSALACTLPTLPLKVYVG — lower, 1.41
- FGPDSKSSALACTLPTLPPKVYVG — lower, 2.46
- FGPDSKSSALACTLPTLPRKVYVG — lower, 2.47
- FGPDSKSSALACTLPTLPEKVYVG — higher, 2.56
- FGPDSKSSALACTLPTLPWKVYVG — lower, 1.26
- FGPDSKSSALACTLPTLPVKVYVG — higher, 2.76
- FGPDSKSSALACTLPTLPGKVYVG — higher, 2.58
- FGPDSKSSALACTLPTLPFKVYVG — lower, 2.35
- FGPDSKSSALACTLPTLPKKVYVG — lower, 2.38
- FGPDSKSSALACTLPTLPMKVYVG — lower, 1.55
- FGPDSKSSALACTLPTLPDKVYVG — higher, 2.6
